Assay results published in patent publication US20140234868A1, “USE FOR GLYCOLIPOPROTEIN GINTONIN, ISOLATED AND IDENTIFIED FROM GINSENG, AS A NATURAL MEDICAL-PLANT DERIVED LIGAND” (KONKUK UNIVERSITY INDUSTRIAL COOPERATION CORP., priority 2011, published 2014).

Columns and labels:
Assay type in all cases: cell-based
[1] = target: T1, LPA3 receptor (Homo sapiens, UniProt Q9UBY5); assay: Intracellular free Ca2+ (Fura-2AM) in LPA3-expressing B103 cells
T1 construct: host or cells: B103 rat neuroblastoma cells
T1 sequence (Q9UBY5 1-353): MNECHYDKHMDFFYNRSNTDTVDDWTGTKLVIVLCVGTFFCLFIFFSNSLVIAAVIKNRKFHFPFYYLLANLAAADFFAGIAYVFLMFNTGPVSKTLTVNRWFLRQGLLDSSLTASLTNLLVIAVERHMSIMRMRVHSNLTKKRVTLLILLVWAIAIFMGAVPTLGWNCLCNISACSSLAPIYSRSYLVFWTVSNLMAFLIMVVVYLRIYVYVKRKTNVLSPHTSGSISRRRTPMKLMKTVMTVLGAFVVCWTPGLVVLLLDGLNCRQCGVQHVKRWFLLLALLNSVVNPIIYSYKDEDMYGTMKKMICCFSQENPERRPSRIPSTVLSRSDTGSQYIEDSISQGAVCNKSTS
Description: (§1) LPA family receptors are endogenous to cells of most organs. B103 rat neuroblastoma cells, known as LPA receptor-null cells (Valentine et al., Biochim Biophys Acta 1780. 597-605) were transiently transfected with a plasmid (vector) carrying one of genes coding for LPA1(edg-2), LPA2(edg-4), LPA3(edg-7), LPA4, LPA5 and LPA6 receptors or a plasmid carrying none of them (empty vector). Two or three days after transfection, the cells are suspended, and made permeable. Then, the permeable cells are treated with Fura-2AM, a fluorescent dye binding to calcium, and then with gintonin, followed by spectrofluorephotometry to examine whether gintonin induces an increase in intracellular free Ca^2+ level.
(§2) (1) preparing large quantities of plasmids carrying respective LPA family receptor genes and an empty plasmid carrying none of them through amplification and purification (maxi-preparation); (2) verifying the expression of LPA receptors wherein B103 cells are transfected with haematoglutin (HA)-tagged LPA receptors, and then subjected to Western blotting analysis using an anti-HA primary antibody and a horseradish peroxidase (HRP)-conjugated secondary antibody to develop a color; (3) verifying the expression of LPA receptors wherein B1-3 cells are transfected with haematoglutin (HA)-tagged LPA receptors, and then subjected to confocal laser microscopy using an anti-HA antibody and a fluorescence dye Cy3-conjugated secondary antibody; (4) transfecting the empty plasmid and each of the plasmids carrying LPA family receptor genes into B103 cells; (5) treating the transfected B103 cells with trypsin (0.05% trypsin with EDTA, w/v) 2-3 days post-transfection, to give a cell suspension; (6) culturing the suspended B103 cells with Fura-2AM (2.5 μM); and (7) treating the suspended B103 cells with gintonin and quantifying a change in intracellular free Ca^2+ level in a cuvette by spectrofluorephotometry using Fura-2AM.
(§3) Human LPA (lysophosphatidic acid) receptor subtypes, orphan GPCRs (G protein coupled receptors) and plasmids carrying GPCRs were purchased from Missouri S&T resource Center (www.cDNA.org).
(§4) The transient transfection of LPA receptor subtypes was carried out with the aid of Lipofectamine 2000 of Invitrogen. A plasmid (10.8 μg) carrying each LPA receptor (LPA1, LPA2, LPA3, LPA4, LPA5, and LPA6) was transfected into B103 cells grown in 10-cm dishes, and incubated for 2 days prior for use in experiments.
In this Example, gintonin, or ginsenoside Rb1 or Rg1 was examined for its ability to induce a transient increase of [Ca^2+]i in Fura-2AM-loaded B103 cells which were transfected with LPA receptors and in Fura-2AM-loaded B103 cells which were not transfected with LPA receptors. To this end, B103 cells (2˜4×10^6/ml) pre-treated with Fura-2AM were suspended in a 1.5 mM Ca^2+-containing buffer or Ca^2+-free buffer, and incubated 37° C. for 30 min, followed by analyzing intracellular calcium levels in the B103 cells in the presence of gintonin or ginsenosides.
Briefly, B103 cells (1˜2×10^6/ml) were mixed with 2.5 μM Fura 2-AM in a Ca^2+ buffer (pH 7.4) containing NaCl 120 mM, KCl 5 mM, MgCl2 1 mM, CaCl2 1.5 mM, glucose 10 mM, and HEPES 25 mM, and a Ca^2+ free buffer (pH 7.4) containing NaCl 120 mM, KCl 5 mM, MgCl2 1 mM, EGTA 0.2 mM, glucose 10 mM, and HEPES 25 mM at 37° C. for 30 min in water bath with shaking according to the Jørgensen method, and washed three times with Ca^2+ buffer or Ca^2+ free buffer to remove excess Fura-2AM.
[Ca^2+]i was estimated in Fura 2AM-loaded cells in suspension using an RF-5300PC intracellular ion measurement system (Shimadzu Corporation, Japan).
Briefly, Fura 2-AM loaded cells were diluted with an experimental medium to a final density of 2˜4×10^6 cells/mL, and transferred to polystyrene cuvettes (Elkay Ultra-VU). The cells were stirred using Teflon-coated magnets, and the cuvette housing was thermostatically controlled at 37° C. The excitation wavelengths were alternated between 340 and 380 nm under computer control. […]

[2] = target: LPA1 receptor (Homo sapiens, UniProt Q92633); assay: Intracellular free Ca2+ (Fura-2AM) in LPA1-expressing B103 cells; design: host or cells: B103 rat neuroblastoma cells
Description: as §1, §2, §3, §4
In this Example, gintonin, or ginsenoside Rb1 or Rg1 was examined for its ability to induce a transient increase of [Ca^2+]i in Fura-2AM-loaded B103 cells which were transfected with LPA receptors and in Fura-2AM-loaded B103 cells which were not transfected with LPA receptors. […]

[3] = system: mutant NMDA receptor (S1312A); assay: Gintonin-induced activation of mutant NMDA receptor S1312A in oocytes
Method: Two-electrode voltage-clamp recordings were obtained from individual oocytes placed in a small Plexiglas net chamber (5 ml). Electrophysiological experiments were performed using microelectrodes filled with 3 M KCl (resistance of 0.2-0.7 MΩ) and an Oocyte Clamp amplifier (OC-725C; Warner Instrument, Hamden, Conn.). For physiological recordings of NMDA receptor activity, oocytes were first perfused with Mg^2+-free ND96 (mM: 96 NaOH, 2 KOH, 0.3 CaCl2, 5 HEPES pH 7.6 with methanesulfonic acid). Then, the oocytes were clamped at −60 mV holding potential, followed by recoding NMDA currents (induced by administering […]) (Zheng et al., J Neurosci. 17, 8676-8686, 1997; Chang and Kuo, J Neurosci. 28, 1546-1556, 2008).
Thus, it is understood that gintonin stimulates PKC to phosphorylate the NMDA receptor at a specific site (S1308), and thus that gintonin-induced NMDA receptor activation is associated with PKC activity.

Chain of LPA1 receptor (Q92633 whole entry): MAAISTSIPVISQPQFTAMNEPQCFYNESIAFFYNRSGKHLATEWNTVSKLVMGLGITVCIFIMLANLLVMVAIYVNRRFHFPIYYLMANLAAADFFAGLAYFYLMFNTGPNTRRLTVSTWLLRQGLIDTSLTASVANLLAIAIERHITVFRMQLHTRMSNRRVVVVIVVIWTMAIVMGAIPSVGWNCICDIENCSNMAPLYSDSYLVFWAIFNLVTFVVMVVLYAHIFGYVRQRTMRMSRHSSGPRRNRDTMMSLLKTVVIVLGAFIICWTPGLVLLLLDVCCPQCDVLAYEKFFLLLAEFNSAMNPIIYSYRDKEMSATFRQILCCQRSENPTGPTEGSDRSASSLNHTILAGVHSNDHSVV

Cc1noc(-c2ccc(CSCCC(=O)O)cc2)c1NC(=O)OC(C)c1ccccc1Cl (stereo not shown) [Kil6425]
effect on gintonin-induced intracellular calcium increase ([1]; LPA3-expressing cells treated with antagonist): did not increase in intracellular calcium level even in the presence of gintonin | effect on gintonin-induced intracellular calcium increase ([2]; LPA1-expressing cells treated with antagonist): did not increase in intracellular calcium level even in the presence of gintonin

B1: gintonin: ginseng-derived glycolipoprotein; structural protein of ginseng major latex-like protein (MLP151) and ribonuclease-like storage proteins; crude gintonin used in tests (protein)
chain 1: MGLTGKLICQTGIKSDGDVFHELFGTRPHHVPNITPANIQGCDLHEGEFGKVGSVVIWNYSIDGNAMIAKEEIVAIDEEDKSVTFKVVEGHLFEEFKSIVFSVHVDTKGEDNLVTWSIDYEKLNESVKDPTSYLDFLLSVTRDIEAHHLPK
chain 2: RSDYPWAMFALRLQWPAGFCEVNNACDTKSLLNTFTIHGLYPYNAKGTPALYCDGTAFDVNSVSDFLAEMHLAWPSHETNTEDIQFWEHEWKKHGRCSEALLKQTDYFRTALAFRKAFDIVGLLNQEGIYPNNDLYRPKMIKEAIKKHLNAVPEIDFTKNENSEYVLTDINVCVNQQATRFVDCPTDDATDDYRLKFVRLPSKMKFADPRTNSII
gintonin-induced NMDA receptor activation [3]: maintained gintonin-induced NMDA receptor activation | transient increase of [Ca2+]i when extracellular Ca2+ was depleted ([1]; Ca2+-free buffer containing 0.2 mM EGTA, LPA3-expressing cells): at a greatly lowered level | EC50 ([1]; LPA3 receptor, B103 cells, read-out: EC50, LPA receptor-mediated intracellular calcium increase): 0.12 ± 0.01 nM | increase in intracellular calcium level ([1]; gintonin 1 μg/ml, LPA3-expressing B103 cells): 206.5 ± 11.2 µM | increase of intracellular calcium level in co-existence with ginsenosides ([1]; gintonin in the presence of ginsenoside Rb1 or Rg1): induce an increase in intracellular calcium level by activating LPA receptors in spite of co-existence with the ginsenosides | transient increase of [Ca2+]i when extracellular Ca2+ was depleted ([2]; Ca2+-free buffer containing 0.2 mM EGTA, LPA1-expressing cells): at a greatly lowered level | EC50 ([2]; LPA1 receptor, B103 cells, read-out: EC50, LPA receptor-mediated intracellular calcium increase): 0.1 ± 0.02 nM | increase in intracellular calcium level ([2]; gintonin 1 μg/ml, LPA1-expressing B103 cells): 185.9 ± 12.8 µM
